B1: N-terminal GST-fused wild-type PREP1 [not stated] / PBX1_(1-430), wild-type recombinant [human] (parent complex)
chain 1: MMATQTLSIDSYQDGQQMQVVTELKTEQDPNCSEPDAEGVSPPPVESQTPMDVDKQAIYRHPLFPLLALLFEKCEQSTQGSEGTTSASFDVDIENFVRKQEKEGKPFFCEDPETDNLMVKAIQVLRIHLLELEKVNELCKDFCSRYIACLKTKMNSETLLSGEPGSPYSPVQSQQIQSAITGTISPQGIVVPASALQQGNVAMATVAGGTVYQPVTVVTPQGQVVTQTLSPGTIRIQNSQLQLQLNQDLSILHQDDGSSKNKRGVLPKHATNVMRSWLFQHIGHPYPTEDEKKQIAAQTNLTLLQVNNWFINARRRILQPMLDSSCSETPKTKKKTAQNRPVQRFWPDSIASGVAQPPPSELTMSEGAVVTITTPVNMNVDSLQSLSSDGATLAVQQVMMAGQSEDESVDSTEEDAGALAPAHISGLVLENSDSLQ
chain 2: MDEQPRLMHSHAGVGMAGHPGLSQHLQDGAGGTEGEGGRKQDIGDILQQIMTITDQSLDEAQARKHALNCHRMKPALFNVLCEIKEKTVLSIRGAQEEEPTDPQLMRLDNMLLAEGVAGPEKGGGSAAAAAAAAASGGAGSDNSVEHSDYRAKLSQIRQIYHTELEKYEQACNEFTTHVMNLLREQSRTRPISPKEIERMVSIIHRKFSSIQMQLKQSTCEAVMILRSRFLDARRKRRNFNKQATEILNEYFYSHLSNPYPSEEAKEELAKKCGITVSQVSNWFGNKRIRYKKNIGKFQEEANIYAAKTAVTATNVSAHGSQANSPSTPNSAGSSSSFNMSNSGDLFMSVQSLNGDSYQGAQVGANVQSQVDTLRHVISQTGGYSDGLAASQMYSPQGISANGGWQDATTPSSVTSPTEGPGSVHSDTSN
B2: PBX1_(1-430), wild-type recombinant [human] / PREP1_(1-436), wild-type recombinant (TR-FIA) [not stated] (parent complex)
chain 1: B1 chain 2
chain 2: B1 chain 1

Variants of: B1
Assay: TR-FIA; parent: 1; read off a plot
chain 1 L63A, chain 1 L66A, chain 1 L67A, chain 1 L70A was tested, and the ratio to parent was about 0.58. chain 1 L63A gave a ratio to parent of about 0.6. With chain 1 I251A the ratio to parent was about 0.88.

Variants of: B1
Assay: ELISA; PBX1 0.5 µM (highest point of the titration); GST control signal subtracted; parent: 0.8; read off a plot
chain 1 L63A, chain 1 L66A, chain 1 L67A, chain 1 L70A was tested, and the response was ~0.13 Abs, 495 nm.

Variants of: B2
Assay: TR-FIA; parent: 1; read off a plot
In the case of chain 1 I50A, chain 1 I53A, the ratio to parent is reported as about 0.83. In the case of chain 1 L81A, the ratio to parent is reported as about 0.52. With chain 1 L105A, chain 1 L108A, chain 1 L113A the ratio to parent was about 0.66. Work on chain 1 I84A yielded a ratio to parent of about 0.56. Variant chain 1 L113A has a ratio to parent of about 0.66. chain 1 L108A showed a ratio to parent of about 0.73. chain 1 I53A was tested, and the ratio to parent was about 0.93. Work on chain 1 L77A, chain 1 V80A, chain 1 L81A yielded a ratio to parent of about 0.34. With chain 1 I46A the ratio to parent was about 0.9. In the case of chain 1 I43A, the ratio to parent is reported as about 1. chain 1 I43A, chain 1 I46A showed a ratio to parent of about 0.79. chain 1 I197A, chain 1 I204A showed a ratio to parent of about 0.64. chain 1 V80A, chain 1 L81A was tested, and the ratio to parent was about 0.39. Variant chain 1 L47A has a ratio to parent of about 0.75. Work on chain 1 L105A yielded a ratio to parent of about 0.71. For chain 1 L77A, the ratio to parent was about 0.63. With chain 1 L77A, chain 1 I84A the ratio to parent was about 0.46. Variant chain 1 I43A, chain 1 I50A has a ratio to parent of about 0.84. In the case of chain 1 L105A, chain 1 L108A, the ratio to parent is reported as about 0.62. Variant chain 1 I50A has a ratio to parent of about 0.62. In the case of chain 1 V80A, the ratio to parent is reported as about 0.45. chain 1 L77A, chain 1 V80A was tested, and the ratio to parent was about 0.42. chain 1 I43A, chain 1 I46A, chain 1 I50A showed a ratio to parent of about 0.8.

— publication PMC7545097, “Mapping the native interaction surfaces of PREP1 with PBX1 by cross-linking mass-spectrometry and mutagenesis” (Scientific Reports, 2020)
